This note sets out measurements from US20250332297A1, “DLL3-SPECIFIC BINDING CONSTRUCTS AND THEIR USE IN RADIOTHERAPY” (MOLECULAR PARTNERS AG, priority 2024, published 2025).

One assay addresses T1, Human DLL3-NTD (Homo sapiens, UniProt Q9NYJ7).
T1 construct: comprising only the N-Terminal Domain (NTD, residues 27-189); 6xHis (C); made in house; host or cells: Expi293F cells
T1 sequence (Q9NYJ7 27-189): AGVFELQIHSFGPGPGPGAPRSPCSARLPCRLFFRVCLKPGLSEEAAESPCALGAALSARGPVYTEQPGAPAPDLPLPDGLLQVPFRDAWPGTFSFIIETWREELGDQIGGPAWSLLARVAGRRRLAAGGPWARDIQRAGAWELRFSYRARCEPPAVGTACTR
Briefly: SPR binding to human DLL3-NTD (Example 11). The conditions noted are these: immobilized biotinylated target, 1:1 Langmuir, Table 14. How it is done:
The truncated human DLL3 construct, comprising only the N-Terminal Domain (NTD, residues 27-189), was designed with a C-terminal 6×His and Avi-tag. Co-expression was carried in Expi293F cells and purification was performed via Ni-NTA affinity chromatography followed by SEC. The final material was monomeric on size exclusion and stored in PBS pH 7.4 at the final concentration of 0.26 mg/ml.
The binding of 2D ankyrin repeat protein MAM279 as well as of MAM279 conjugated to the chelator DOTAM (the conjugation was performed as described in Example 3) to different target proteins was analyzed by Surface Plasmon Resonance (SPR). Specifically, the proteins analyzed were (i) MAM279 (SEQ ID NO: 11), with a Glycine-Serine (GS) at its N-terminal end and an N-terminal His-tag (SEQ ID NO: 19); and (ii) MAM279 (SEQ ID NO: 11), with a Glycine-Serine (GS) at its N-terminal end and a tag (SEQ ID NO: 10) at its C-terminal end (resulting in GS-MAM279-tag (SEQ ID NO: 15)), conjugated to the chelator DOTAM as described in Example 3.
A surface plasmon resonance (SPR) assay was used to determine the binding kinetics of the two proteins (i.e. MAM279 with and without conjugation to chelator) to different targets: the Extra-Cellular Domain (ECD) of human DLL3, the ECD of cynomolgus monkey DLL3, the N-Terminal Domain (NTD) only of human DLL3, and the NTD dog DLL3. The data were generated using BioRad ProteOn instrument in SPR running buffer (PBS, pH 7.4 containing 0.005% Tween 20©). […] The chip was coated with biotinylated target to reach a signal intensity of 1516 RU (human ECD), 257 RU (human NTD), 1500 RU (cyno ECD) and 228 RU (dog NTD). All analytes (various concentrations in 3-fold dilutions ranging from 500-6.17 nM) were injected in succession for 240 s (100 μl/min) and dissociation was recorded for 10800 s (100 μl/min). Each injection was followed by a regeneration step with 16 mM H3PO4 for 18 s. […] The obtained SPR traces were used to determine on-rate and off-rate interaction parameters.
For orientation: In SPR one partner is held on a chip, and binding of the other changes the refractive index at the surface.

Assay [1] relates to SHP-77 lung carcinoma cells. Briefly: Internalization in SHP-77 cells. The format is cell-based, human. The conditions noted are these: AF488 label with anti-AF488 quencher, 37° C. How it is done: (§1) Studies were performed to determine whether a half-life extended DLL3-specific ankyrin repeat protein, as described herein, is internalized upon binding to cells expressing DLL3 on their surface. The specific ankyrin repeat protein tested was MAM279 (SEQ ID NO: 11) (with a Glycine-Serine (GS) at its N-terminal end). […] As a comparison, internalization was also tested for Rova antibody. Internalization was investigated on different cell types expressing DLL3 on their surface, namely SHP-77 lung carcinoma cells, NCI-H82 lung carcinoma cells, and hDLL3-expressing MC38 (MC38-hDLL3) colon carcinoma cells. In brief, DARPin and antibody were pre-incubated and labelled with fluorescently labelled detection antibodies (Fab-AF488) and added to 5×10^4 cells/well in a 96-well plate (100 nM DARPin, 10 nM antibody control) and incubated for 1h on ice. Cells were washed once with PBS and then incubated for different timepoints (0 min, 15 min, 30 min, 1 h and/or 4 h) at 37° C. in PBS with 2% FCS. […] Raw fcs files were exported and analyzed using FlowJo software. MFI values of live AF488-positive cells were exported from FlowJo and plotted using GraphPad Prism software. % internalization was determined by normalizing to non-binding control DARPin (for MAM279) or non-binding isotype control IgG (for Rova). […]

Assay [2] deals with hDLL3-expressing MC38 (MC38-hDLL3) colon carcinoma cells. Briefly: Internalization in MC38-hDLL3 cells. The format is cell-based. The conditions noted are these: AF488 label with anti-AF488 quencher, 37° C. How it is done:
as §1

B1: MAM279-DOTAM: GS-MAM279-tag (SEQ ID NO: 15) conjugated to the chelator DOTAM via C-terminal tag and maleimide connector, no radionuclide (conjugate)
chain: GSDLGKKLLEAARAGQDDEVRELLKAGADVNAKDYFSHTPLHLAARNGHLKIVEVLLKAGADVNAKDFAGKTPLHLAADAGHLEIVEVLLKAGADVNAQDIFGKTPADIAADAGHEDIAEVLQKAAGSPTPTPTTPTPTPTTPTPTPTGSDLGKKLLAAAAQGQDDEVRELLKAGANVNAKDLFGYTPLHLAAWRGHLEIVEVLLKAGADVNAKDAAGETPLHLAAWFGHLEIVEVLLKAGADVNAQDLQGKTPADLAAKEGHEDIAEVLQKAAGSGSC
modifications: DOTAM chelator via maleimide on C-terminal tag; Ankyrin repeat protein with tag (GS-MAM279-tag)
Regarding B1, in the assay with Human DLL3-NTD, the “Koff Human DLL3-NTD” value came to 1.99e-05 s⁻¹ and the “Kon Human DLL3-NTD” value is 50400 M⁻¹ s⁻¹.

B2: Rova: Rova antibody, DLL3-binding benchmark antibody used as positive control and comparison (antibody, chains of the INN, looked up, V domains shown)
VH: QVQLVQSGAEVKKPGASVKVSCKASGYTFTNYGMNWVRQAPGQGLEWMGWINTYTGEPTYADDFKGRVTMTTDTSTSTAYMELRSLRSDDTAVYYCARIGDSSPSDYWGQGTLVTVSS
VL: EIVMTQSPATLSVSPGERATLSCKASQSVSNDVVWYQQKPGQAPRLLIYYASNRYTGIPARFSGSGSGTEFTLTISSLQSEDFAVYYCQQDYTSPWTFGQGTKLEIK
Take B2: the internalization entry in assay [1] and in assay [2] was “internalization” throughout.

B3: MAM279: Two domain (2D) ankyrin repeat protein: serum albumin-specific domain (SEQ ID NO: 7), PT linker, DLL3-specific domain of MAM093 (protein)
chain: DLGKKLLEAARAGQDDEVRELLKAGADVNAKDYFSHTPLHLAARNGHLKIVEVLLKAGADVNAKDFAGKTPLHLAADAGHLEIVEVLLKAGADVNAQDIFGKTPADIAADAGHEDIAEVLQKAAGSPTPTPTTPTPTPTTPTPTPTGSDLGKKLLAAAAQGQDDEVRELLKAGANVNAKDLFGYTPLHLAAWRGHLEIVEVLLKAGADVNAKDAAGETPLHLAAWFGHLEIVEVLLKAGADVNAQDLQGKTPADLAAKEGHEDIAEVLQKAA
modifications: Ankyrin repeat protein (MAM279)
The Kd is a measure of binding affinity in units of concentration. Low values mean tighter binding, high ones weaker binding. As to B3, in the assay with Human DLL3-NTD, the equilibrium dissociation constant (Kd) is 0.263 nM, the “Koff Human DLL3-NTD” value amounted to 1.54e-05 s⁻¹ and the “Kon Human DLL3-NTD” value is 58700 M⁻¹ s⁻¹. For the same molecule, the internalization result in assay [1] is on record as “similarly internalized”. For the same molecule, the internalization result in assay [2] is recorded as “similarly internalized”.
